From patent US10526416B2, “Anti-HER3 antibodies and uses of same” (Yeda Research and Development Co. Ltd., priority 2014, dated 2020)

B1: NG83: anti-HER3 mAb; light chain CDRs SEQ ID NOs: 7-9, heavy chain CDRs 10-12 (antibody, V domains shown)
VH: QIQLVQSGPELKKRGETVKISCKASGYTFTNYGMNWVRQAPGKGLKCMGWINTYAGEPTYADDFKGRFAFSLDSSASTAYLQINNLKNEDMATYFCARGGITGAMDYWGQGTSVTVSS
VL: DVVMTQKTSSLSTSLGDRVTISCRASQDIRNYLNWYQQKPDGTVKLLIYYTSRLHSGVPSRFSGSGSGTDYSLTISDLEQEDIATYFCQQGNTLPWTFGGGTKLAIK
modifications: VH chain of NG83 polypeptide; VL chain of NG83 polypeptide
B2: XC252: anti-HER3 mAb generated as described in Chen X, et al. (1996); heavy and light chain SEQ ID NOs: 49 and 53 (antibody, V domains shown)
VH: EVQLQQSGAELVRPGVSVKISCKGSGYTFTDYAMHWVKQSHAKSLEWIGVISTYYGDPRDNQKFKGKATMTVDKSSSTAYMELARLTSEDSAIYYCARGDYDWYAIDYWGQGTSVTVSS
VL: DVVMTQTPLSLPVSLGDQASISCRSSQSIVHSDGNTYLEWYLQKPGQSPKLLIYKVSNRFSGVPDRFSGSGSGTDFTLKISRVEAEDLGVYYCFQGSHVPPTFGGGTKLEIK
modifications: VH chain of XC252 polypeptide; VL chain of XC252 polypeptide

Assays:
BXPC3-luc cells = assay: Antibody-dependent cellular cytotoxicity (ADCC) luciferase assay with human PBMC; assay type: cell-based; details: 24 h
Procedure: (FIGS. 5A and 5B) The mAb ability to degrade HER3 after cell treatment was determined as follows. N87 cells were treated for 3 h at 37° C. with 10 μg/ml mAb. After cell lysis and protein extraction, the samples were subjected to immunoblotting with the indicated Ab. (FIG. 5C) The experiment shown in FIG. 5A was performed on 6 other cancer cell lines. (FIG. 5D) The mAb capacity to induce ADCC is reported. BXPC3-luc cells were incubated with the indicated mAbs and secondarily with human PBMC cells for 24 h. Cell killing was detected by measuring the luminescence after final addition of luciferine. *** […], ANOVA and post hoc tests.
ADCC was evaluated with a luciferase-activity assay. Using 96-well white plates, BXPC3-luc (4,000 cells/well) were pre-incubated for 30 min with the indicated antibodies. Ficoll-purified human peripheral blood mononuclear cells (PBMCs) from buffy coat were then added at a 10:1 effector to target cell ratio (E:T). […] Bioluminescence was determined using the Wallac Trilux 1450 Microbeta liquid scintillation and luminescence counter (Perkin-Elmer, MA). Percentage of cellular cytotoxicity was calculated using the following formula: percentage of specific lysis=[bioluminescence in experimental point−basal bioluminescence]/[bioluminescence in total lysis−basal bioluminescence]×100. […]

IgB3 = target: T1, IgB3 (Homo sapiens, UniProt P21860); assay: Antibody competition assay with Lumi4(Tb)-labeled NG33 on IgB3-coated plates; assay type: binding; details: NG33-K2 1 nM
T1 construct: To produce IgB3 (recombinant HER3 extracellular domain fused to a human IgG Fc domain); made in house
T1 sequence (P21860 20-643 limits assumed): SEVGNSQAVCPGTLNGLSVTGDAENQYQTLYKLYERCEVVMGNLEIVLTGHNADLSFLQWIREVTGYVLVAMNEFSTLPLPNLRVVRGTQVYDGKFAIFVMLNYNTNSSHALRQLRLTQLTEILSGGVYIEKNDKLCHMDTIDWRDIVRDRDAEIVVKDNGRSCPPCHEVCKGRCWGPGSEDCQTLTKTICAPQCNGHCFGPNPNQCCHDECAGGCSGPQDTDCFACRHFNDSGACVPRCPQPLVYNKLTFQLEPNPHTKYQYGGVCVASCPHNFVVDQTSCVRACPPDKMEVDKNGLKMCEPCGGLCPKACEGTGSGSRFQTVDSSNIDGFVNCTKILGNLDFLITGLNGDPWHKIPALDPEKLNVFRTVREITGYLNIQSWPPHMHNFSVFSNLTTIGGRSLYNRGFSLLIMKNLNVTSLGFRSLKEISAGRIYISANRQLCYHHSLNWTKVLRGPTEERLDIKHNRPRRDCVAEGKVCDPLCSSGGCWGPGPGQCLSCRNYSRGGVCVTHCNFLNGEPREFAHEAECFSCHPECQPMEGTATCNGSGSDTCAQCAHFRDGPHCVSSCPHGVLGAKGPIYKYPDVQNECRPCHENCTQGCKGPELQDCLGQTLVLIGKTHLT
T1 sequence (P01857 99-330 partner limits assumed): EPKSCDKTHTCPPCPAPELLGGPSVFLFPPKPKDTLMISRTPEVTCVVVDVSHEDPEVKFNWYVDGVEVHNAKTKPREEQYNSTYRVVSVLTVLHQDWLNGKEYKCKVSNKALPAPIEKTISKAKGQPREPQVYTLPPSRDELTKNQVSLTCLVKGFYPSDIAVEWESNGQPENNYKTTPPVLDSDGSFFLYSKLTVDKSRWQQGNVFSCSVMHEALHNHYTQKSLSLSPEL
Procedure: FIGS. 12A-D show a combination of two mAbs directed to two different epitopes of HER3. (FIGS. 12A and 12B) The antibodies NG33 and XC252 were labeled with the fluorescent dye Lumi4® Tb Cryptate (K2). 96 well-plate were coated with IgB3 (1.5 μg/ml), blocked with PBS-BSA and incubated for 1 h with various concentrations of mAbs under gentle shaking at RT. The labeled mAb, NG33-K2 (FIG. 12A) or XC252-K2 (FIG. 12B), was then added at 1 nM final concentration. After ah incubation, the plate was washed 4 times with KREBS buffer, and the fluorescence intensity at 610 nm was measured using a fluorescence microplate reader. (FIG. 12C) The various anti-HER3 mAb combinations were studied for their ability to trigger HER3 degradation using N87 cells. Cells were treated for 2 h at 37° C. with mAb (10 μg/ml). After cell lysis and protein extraction, the samples were subjected to immunoblotting with the indicated antibodies. (FIG. 12D) The combination's capacity to modulate NRG-induced phosphorylation of HER3, AKT and ERK was evaluated using N87 cells. After 20 min treatment at 37° C. with 10 μg/ml of mAbs, NRG (20 ng/ml) was added to the cells for 10 min. The cells were then lysed, and equal quantities of lysate protein were electrophoresed before immunoblotting, as indicated.
Agent labeling was performed by Cisbio. […] Following 1 h incubation, the plate was washed 4 times with KREBS buffer (146 mM NaCl, 4 mM KCl, 0.5 mM MgCl2, 1 mM CaCl2, 10 mM Hepes, 1 gr/L glucose, and 1 mg/mL albumin), and the fluorescent intensity (excitation: 488 nm, emission: 610 nm) was measured using a fluorescence microplate reader. […] Finally, following two washes with KREBS buffer, the fluorescence intensity was measured at 670 nm (excitation: 620 nm).
Combinations of antibodies directed against two different epitopes of the same receptor, as has been previously shown, can improve the effect of treatment with a single mAb (28, 29). […] First, it was determined which antibody from the anti-HER3 series targets an epitope distinct from that targeted by NG33. […]

Row | Molecule | induction of ADCC (BXPC3-luc cells) | effect on binding of Lumi4(Tb)-labeled NG33 to IgB3 (IgB3)
1 | B1 | strongly or moderately induced ADCC | potentiated NG33 binding to IgB3
2 | B2 |  | did not alter NG33 binding
